Experimental data: patent US12742015 (dated 2026)

T1: FcγRIIb (human, UniProt P31994)
T1 chain: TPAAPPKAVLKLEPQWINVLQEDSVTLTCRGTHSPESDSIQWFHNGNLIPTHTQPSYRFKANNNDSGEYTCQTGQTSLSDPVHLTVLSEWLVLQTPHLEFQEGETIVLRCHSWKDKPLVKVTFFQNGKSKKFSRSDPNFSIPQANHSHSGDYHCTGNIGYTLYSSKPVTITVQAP

T2: FcγRIIa 167R (human, UniProt P12318)
T2 chain: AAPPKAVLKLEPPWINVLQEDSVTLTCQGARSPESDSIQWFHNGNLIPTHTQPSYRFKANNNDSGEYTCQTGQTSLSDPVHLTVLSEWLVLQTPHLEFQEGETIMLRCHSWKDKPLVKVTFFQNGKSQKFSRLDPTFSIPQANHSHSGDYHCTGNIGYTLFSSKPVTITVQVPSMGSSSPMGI

T3: OX40 on T cells (human, UniProt P43489)
T3 chain: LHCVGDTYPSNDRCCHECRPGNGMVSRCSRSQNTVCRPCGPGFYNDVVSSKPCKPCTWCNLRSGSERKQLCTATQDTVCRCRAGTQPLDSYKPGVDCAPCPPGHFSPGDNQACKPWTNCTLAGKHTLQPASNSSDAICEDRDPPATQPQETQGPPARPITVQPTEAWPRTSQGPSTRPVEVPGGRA


Assays:
FcγRIIb = biological target: T1, FcγRIIb; test: SPR
FcRn = FcRn (human, UniProt P55899); test: SPR, pH 7.4
FcγRIIa 167R = biological target: T2, FcγRIIa 167R; test: SPR
OX40 on T cells [1] = biological target: T3, OX40 on T cells; test: other, CD8+ T cells, apparent affinity
OX40 on T cells [2] = biological target: T3, OX40 on T cells; test: other, CD4+ T cells, apparent affinity

Row | Binder | binding result (FcγRIIb) | binding result (FcRn) | binding result (FcγRIIa 167R) | Kd (OX40 on T cells [1]) [nM] | Kd (OX40 on T cells [2]) [nM]
1 | MAB10 full (antibody) chain 1: QVTLKESGPALVKPTQTLTLTCSFSGFSLSTSGMGVGWIRQPPGKALEWIAHIWWDDDKYYNTALKTRLTISKDTSKNQVVLTMTNMDPVDTATYYCARIDWDGFAYWGQGTLVTVSSASTKGPSVFPLAPSSKSTSGGTAALGCLVKDYFPEPVTVSWNSGALTSGVHTFPAVLQSSGLYSLSSVVTVPSSSLGTQTYICNVNHKPSNTKVDKKVEPKSCDKTHTCPPCPAPELLGGPSVFLFPPKPKDTLYITREPEVTCVVVDVSHEDPEVKFNWYVDGVEVHNAKTKPREEQYNSTYRVVSVLTVLHQDWLNGKEYKCKVSNKALPAPIEKTISKAKGQPREPQVYTLPPSRDELTKNQVSLTCLVKGFYPSDIAVEWESNGQPENNYKTTPPVLDSDGSFFLYSKLTVDKSRWQQGNVFSCSVMHEALHNHYTQKSLSLSPGK chain 2: EIVLTQSPATLSLSPGERATLSCRASSSVSYMHWYQQKPGQAPRPWIYATSNRATGIPARFSGSGSGTDYTLTISSLEPEDFAVYYCQQFGAWPWTFGQGTKVEIKRTVAAPSVFIFPPSDEQLKSGTASVVCLLNNFYPREAKVQWKVDNALQSGNSQESVTEQDSKDSTYSLSSTLTLSKADYEKHKVYACEVTHQGLSSPVTKSFNRGEC | no binding | no binding | no binding | – | –
2 | GBR 830 (OX40 binding) (antibody, V domains shown) VH: QVTLKESGPALVKPTQTLTLTCSFSGFSLSTSGMGVGWIRQPPGKALEWIAHIWWDDDKYYNTALKTRLTISKDTSKNQVVLTMTNMDPVDTATYYCARIDWDGFAYWGQGTLVTVSS VL: EIVLTQSPATLSLSPGERATLSCRASSSVSYMHWYQQKPGQAPRPWIYATSNRATGIPARFSGSGSGTDYTLTISSLEPEDFAVYYCQQWSSNPWTFGQGTKVEIK | – | – | – | 3.46 | 1.25

Continued, values first:

Row | binding result (FcγRIIb) | binding result (FcRn) | binding result (FcγRIIa 167R) | Kd (OX40 on T cells [1]) [nM] | Kd (OX40 on T cells [2]) [nM] | Binder
3 | – | no binding | – | – | – | GBR 830 full (antibody) chain 1: not shown chain 2: EIVLTQSPATLSLSPGERATLSCRASSSVSYMHWYQQKPGQAPRPWIYATSNRATGIPARFSGSGSGTDYTLTISSLEPEDFAVYYCQQWSSNPWTFGQGTKVEIKRTVAAPSVFIFPPSDEQLKSGTASVVCLLNNFYPREAKVQWKVDNALQSGNSQESVTEQDSKDSTYSLSSTLTLSKADYEKHKVYACEVTHQGLSSPVTKSFNRGEC
4 | – | no binding | – | – | – | MAB1 full (antibody) chain 1: not shown chain 2: EIVLTQSPATLSLSPGERATLSCRASSSVSYMHWYQQKPGQAPRPWIYATSNRATGIPARFSGSGSGTDYTLTISSLEPEDFAVYYCQQFGAWPWTFGQGTKVEIKRTVAAPSVFIFPPSDEQLKSGTASVVCLLNNFYPREAKVQWKVDNALQSGNSQESVTEQDSKDSTYSLSSTLTLSKADYEKHKVYACEVTHQGLSSPVTKSFNRGEC
